Reference: a protein production outcome set (Wang et al. 2014)

Assay: label from the status in PepcDB records

Row | Sequence | protein production
1 | MKVIICGAGQVGYGIAEQLSREDNEVSVIDTAAPLITAITETLDVRGYVGHGAHPDMLAKAGADQADMIIAVTLHDEINIVACEVAHALFSVPTKIARIRDQSYMKPEYADLFSRENMSIDVTISPEVEVGKMVLRRIAFPGATDVVRFAEDTIYMLAIECMEDCPVINTPLQQLSSLFPDLIATVVGVYRDGILKVAHSSEQLRVGDLAYVICQRQHARRTLSLFGHEEQEAQRIVIAGAGNIGHFVAHKIEEMQSKTRVKIIEADRDRAIAASEQLSHTIVMHGSALDQKILMQADIQDADLIVTLTNNDQTNILAAVIAKQLGCKSNLALLNSTSFHDVARSLGLDAYINPRAVTISRVLQHVRKGRIRSVYAVQRGSAEVIEAEALETSPLVGQSFRDIDMPDGVRIGAIYRDGVVIRPDGSTKIKAKDRVVLFASADAVRDVEQLFRVSIQYF | failed
2 | MGGASWADTAMGGKGRHPDKALTTVQVRALKVPGRYADGNGLYLVVEPSGSKRWLLRTIVQGRRRDIGLGGAGLVTLAEAREKALAYRKLARDGGDPLAERRKARATVPTFAEAAEQVHEEHKASWKNPKHAAQWITTLRTYANPHLGARRVDQIETPDVLRALSPIWLTKGETARRVRQRIGTVLDWAKAAGHRTGDNPVESVAKGLPKQGERDEHHAALPYAEVPAFVTRLQSSDHGEAARLAFEFLILTAARTSEVLRAEWREIDEAEALWTVPAARMKAGREHRVPLSKRSLEIVRRAKLLAGDSAFIFPGRSTGKPMSNMVFLMALRRMKLTVTAHGFRSSFRDWAAEATSLPREVAEMALAHTIENRVEAAYRRGDLLAKRREMMEQWSTFVASKPKGDKPHKSSA | failed
3 | ILFSVVIGSFTPAHPIASETNPKVENAKDAPEIEPFSEQAVEELHRQKKPLFIYFSADWCLTCKVNEKMAIDRDSTRQAFRQKGIVTLHGDWTNGDPEITHFLSKMHRSGIPLYLYYPADGEIQI | failed
4 | MITVVKRNGRIEPLDITKIQKYTKDATDNLEGVSQSELEVDARLQFRDKITTEEIQQTLIKTAVDKIDIDTPNWSFVASRLFLYDLYHKVSGFTGYRHLKEYFENAEEKGRILKGFKEKFDLEFLNSQIKPERDFQFNYLGIKTLYDRYLLKDANNNPIELPQHMFMSIAMFLAQNEQEPNKIALEFYEVLSKFEAMCATPTLANARTTKHQLSSCYIGSTPDNIEGIFDSYKEMALLSKYGGGIGWDFSLVRSIGSYIDGHKNASAGTIPFLKIANDVAIAVDQLGTRKGAIAVYLEIWHIDVMEFIDLRKNSGDERRRAHDLFPALWVCDLFLKRVLEDAMWTLFDPYECKDLTELYGQDFEKRYLEYEKDPKIIKEYINAKDLWKKILMNYFEAGLPFLAFKDNANRCNPNAHAGIIRSSNLCTEIFQNTAPNHYYMQIEYTDGTIEFFEEKELVTTDSNITKCANKLTSTDILKGKPIYIATKVAKDGQTAVCNLASINLSKINTEEDIKRVVPIMVRLLDNVIDLNFYPNRKVKATNLQNRAIGLGVMGEAQMLAEHQIAWGSKEHLEKIDALMEQISYHAIDTSANLAKEKGVYKDFENSEWSKGIFPIDKANNEALKLTEKGLFNHACDWQGLREKVKANGMRNGYLMAIAPTSSISILVGTTQTIEPIYKKKWFEENLSGLIPVVVPNLNVETWNFYTSAYDIDAKDLIKAAAVRQKWIDQGQSLNVFLRIENASGKTLHDIYTLAWKLGLKSTYYLRSESPSIDEKSVLDRSVECFNCQ | failed
5 | DNKKIILEFSSPNTNKPLHVGHLRNDVIGESLSRILKAVGAKITKINLINDRGVHICKSMLAYKKFGNGITPEKAFKKGDHLIGDFYVKYNKYSQENENAEKEIQDLLLLWEQKDVSTIELWKKLNKWAIEGIKETYEITNTSFDKIYLESEIFKIGKNVVLEGLEKGFCYKREDGAICIDLPSDSDEKADTKVKQKVLIRSNGTSIYLTQDLGNIAVRTKEFNFEEMIYVVGSEQIQHFKSLFFVAEKLGLSKNKKLIHLSHGMVNLVDGKMKSREGNVIDADNLISNLIELIIPEMTQKIENKESAKKNALNIALGAIHYYLLKSAIHKDIVFNKKESLSFTGNSGPYIQYV | failed
6 | MASSFLEEVDRLITLSGITFHASGTGTPELIKIYQDALGNEFPETYKLFLEKYGTLTFNGVSFYGISKRGLSAASIPDVKFATEQARTFGDINKEMIMIKNSGYGSIFSIDTSIIGSEGEPVIVETNLSFKDNTEKKVVANSFGEFLLEEIELSLTDLG | not failed
7 | MDWITLLRSLQSDFIKRLSSGCLLHCEIEGQYSELTVISGERLKTLRDFCWLMAEKYKRVSPVRDVFISYLKGKLGEEVVKERLADLITEVDYEKRLGGDGKIDFTLTANPAIGIEVKSRHGNIDRVRWSVSAEEVEKNAVVVCIFIKEDVNEAQSSYHLLLAGFLPTQMIKLKTGNISFGIEQLLYGGGLWGYLEQLQASANYHQFQQSPPIYQYKPQPELLSKINQTQSIKPALFTGIKNILPYRQQEAINIDYIKIGDECFAQGEYTASIKNYSQALQASSDNCELYYKRGLSYYQLGDYEAAIADYSQAININLHDAKSYHKRGLALSQLAAYEAAIDDYNQAIRINPHAASIYKNRAEARSHLGDNQGAIEDYTQAIKINPQYADTYKNRGISRYLLATQPGFTQAIKINPNDANAYKNRGNARADIGDYLGAIEDYNQAIQINPKAADAYYNRGNARYDLGDEEGAIADYTQAIQINPSYADAYYNRGNVRAGIKDKQGAIADFQKAADIYRKEGKLAELKDTTERVVELEIEESIDILNF | failed
8 | MQNLDRDVVIVGAGPSGLTAARELKKAGLSVAVLEARDRVGGRTWTDTIDGAMLEIGGQWVSPDQTVLMELLDELGLKMYSRYRDGESVYIGADGKRTQYTGDTFPVNETTKAEMDKLVAILDELAAEIGPTEPWAHPKARELDTISFHHWLRQNSNDEEACNNIGLFIAGGMLTKPAHAFSALQAVLMAASAGSFSHLTDEDFILDKRVIGGMQQVSLLQAAELGDDVVLNSPVRTIKWDENGVSVVSERATVNARFVIMAVPPNLYSRVSFDPPLPRRQHQMHQHQSLGLVIKVHAVYDTPFWREEGLSGTGFSAGALVQEVYDNTNHGDSRGTLVGFVSDEKADAVFELSAEDRKKAILESIAGFLGDKALTPEVYYESDWGSEEWTRGAYASSYDLGGLHRYGKDQHANVGPIYWSSSDLAAEGYQHVDGAVRMGQATAARIVEANKLASVPVA | not failed
9 | MKTTIQTITLILGLFISSLAIASPEFPTQEPMGGKTFGHSVKHVGNGIYVFRWWVYRNFFVVTDDGVIVSDPLNPKAAKLLQSEIRKITDKPVKYVVYSHNHHDHISGGNIFKAEGAKFIGHKNLLKQLKDHPSPVLPIPDIVFEDTYTLTLGNRTLELSYFGPNHGDSLVVMRFPKEKILFVVDIVTPRRVAFRGMPDFWPDEWVRSLKEIELMDVDYVISAHGPENQPAIDPASVIKEQRVYIEDLMAAVKLKMDEGVHSPDALRKQVKLPKYEHWQYYEQWLPMNIERIWAYYHMGW | failed
10 | MDILDLNKAQAVQQNEQEVEDKERESKEPVVLEDLSALAWLELEEFSRLSGLPKERILELVNLGKIKSKISSNKLLIDASSGTNALIKKVENSLISMDMNGRSLEPVFVEKTINTILNLHDKVIGAKDETISAFKNENMFLKDALISMQEVYEEDKKTIDLLRDELNQAREEIEFMKRKYRLMWGKVADMSSVNKK | failed
11 | GEVVLKMKVEGMTCHSCTSTIEGKIGKLQGVQRIKVSLDNQEATIVYQPHLISVEEMKKQIEAMGFPAFVKKIEGR | not failed
12 | MKISIICPLYNAENYIMSLHNKILEQEKPEGTEVEVSYVLTRCKDKTEEMLKNMNLQYTLIEPKDFSHSKTREMMAFKSTGDIIVFISQDVMMKNNFWLKNLVQPIIDGECEASFSRQLCTNNTIEKYIREKNYPEESRVVSKKDINKYGLLTFFYSDASSAVKTSVYKELNGYDNKRLLINEDMYFAEKLIQAGYRIKYCSDSEVYHSHVFTLKSLYERYFDTGVFFRQNSQFLNYKGNKSGKDLAIHVLKRSLEDKNFKVTLNILPNFGARFIGSFLGKKYESLPRSFVMASSMSKKVYSQILEHHHHHH | not failed
13 | MIKGGGGKSSGYSADLMVCFPSRAHLSLPSKSISSPSSSFNRRQNAPHHRRSISKLSSSGGGVRQNRGGGREVVEEPTSPKVTCAGQIKVRSSKRDGGGKNWQSLMAEIEKIHRSKSESKFFGIKRDVMGFLTCLRDFDFRCFGAFPPVDIISDDEEEDEEEEEEDEEEDEDESSGTVFSKWLMVLHEKQNNEECVDGKENVFSDVETAVPPPNALLLMRCRSAPVKNWSEEKKEETEEGDNRVKQSGEEEEEEKDRVGNKKDLRSLMEEEKKMNLVVMNYDTNYYKLSNDIAKETWVVGGIQDPLFRSRSWKK | failed
14 | MYDFKKINNLRGIERETLRVTDCGNLATSNHPDGLGHKLTNNSITVDFSENLLELITKPHDSIDKAIGELYQLSAFTLDNMHSDEIILNTSMPLSANDNDIQEADFGSSNSGRMKRVYRKGLSARYGKIMQIISGIHYNFSFDKDLISNIATNKQVSISDIYFDVLNNYFEFMWLLPYLFGASPICAKTSVKNKPDYLSVLDDKFYVGEYATSLRMSDLGYTSPAQKDLAISYDNVKAYVKDLIQATDDTFADYKRIGLYNSQGQRIQLNDGILQIENEYYSAIRPKQIAKRGERPACALYNRGVEYVEVRVLDVDPFEPVGISKDTALFVEVMLMTCLDKDAKKYHKDIIKQAKQNLTAVAIQGRNPQLKLKKLDDDSEILLKDYALELFDEIEAVAKKMPKEYLDAVEIQKRKVLDISQTPSAKIIELARQHGYKKFILDISRRVSQQFRSYELPAAIVAKLKDQAGQSVAAEKELVANDKISLDEYINRYYKSSKGCC | not failed
15 | MRASHETTTSMGHDHNHAPSEIRHETPLWWALGLTATFLLAEIIGAFVTNSLALLSDAAHMATDTVGLMIALVAVRLSRRPADARRTYGYVRLEALGALANGALLFAVGGYILWEAAQRVRAPQDIAYGGMLLIAGFGLVINLIAMKLLHAGSGESLNVKGAYLEVWSDMLGSMAVIIGALLIHWTSWQWIDPVLAVLIGLWVLPRTWVLLREAINVLLEGVPKGIDLAQVQQALTSHPGVEDVHDLHVWALASSTPALTAHIVVNEATDRDRLRDALATLLHDRFDIVHVTLQVESGDCGTEPCGTPKPAADAGHDAHHGHSHAHGHSHH | failed
16 | MFALIILISAIIFGIISYFTGKHAKEVSAVLSGILLLEIIAYSIMRFSSYSGGFISRYSVVISSSLGLSFSIAVSGLTDALLILSAVVILIAVLITDRNYGSAFFGLEMTVLAGLIGLLISRDFLFFYIFWEVVLIPVYFMIGRYGIGNKNSISLKFFVYTHIGSVFILLSIFTLYSQSYVYLASPTFEIGPLMSILPKLSLFYKGFVIFGFLFGFLVKMPSFPIHSWLPDSYYSAPYPGSVILAGAISMMGGYGLFGIMIESYKALDVYVLYLLIALGIISLIYFALTAMFQRNIKKMMAFASASAMGFVTISFAASILETSGIDYSVRALEAAGGMFQIVAHGLIMSLVFSALYYISRNTKTDSVYGLGGIYREAPKLASLTLVGLLASLGLPGFAGFIGEFSIVVGVFQTVSWYIFLIIFGMIITASYHIWTAQRSLYGPYNENLGFIRDINSGEFMILIFLVLVIFVLGIYPNLIFANLVNYTNTSLSISVEPALRTNVVAFLEAHVFEVMQ | failed
17 | MSMLKRTLVLLGDTPSSLAARAYAFRLVQQTGTDLTGLAGVDLGEIEAPMLGGIGMSAYQTQLQTELKRQADATRERLQAAFSDECRSRSIACAALSFEGDAADGFRLATETRDLAIAGHDTGFGGSQEPLSAMIAKLVVRTPRPLIVCPDELPAGDAVLIAYDGSLPAMRALQVFALLGLGDGKQICVLAIDRDEAAAVRKANAAAEFLKIHGHAAQAVPSSSGDDPADLIRSAVAERNIGTVVMGAYGNRGFREALFGSTTDALVDTPPCALFLYH | failed
18 | MSEQPSSVSGVKKVAIIPEIHISAPVLAKIVSYVAEESVDALKPFVKAGPLFKSAVYSKETLSCVRLDKSRYYMWWSTTHSIYYHFFTKSLEAKNPHALNAVLYKPIAYENFAAECYRATLWAELYGEYEA | failed
19 | MCLSIPSQVVAVDNERQSVTVDTLGVRRDVSSHLMTEPLAIGDYVLIHIGFVMNKIDRNDALQSLELYQEIVSKLENETTH | not failed
